# The nanobody polyreactivity screen of Harvey et al. (2022)
# Experiment: yeast display, Sf9 membrane polyspecificity reagent, FACS + sequencing; frameworks hold sequencing errors
# Procedure, shortened: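 Genes from sorted yeast were amplified by colony PCR, read by MiSeq 2 × 250 sequencing and filtered on CDR length. These cells carried a synthetic nanobody library in Saccharomyces cerevisiae BJ5465 and were sorted by FACS into low and high (top ~1%) gates on anti-HA and streptavidin fluorescence. Polyreactivity is labelled according to the gate of origin.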
row,Sequence,polyreactivity (PSR sort gate)
1,QVQLVESGGGLVQAGGSLRLSCAASGRILARYTMGWYRQAPGKERELVAAISRSSGSTYYADSVKGRFTISRDTAKNTVYLQMNSLKPEDTAVYYCAAYLSYWGQGTQVTVSS,high polyreactivity
2,QVQLVESGGGLVQAGGSLRLSCAASGRILDYNAMGWYRQAPGKERELVAAITWRGGSTYYADSVKGRFTISRDNAKNTVYLQMNSLKPEDTAVYYCNARWSKTAHTRFGYWGQGTQVTVSS,low polyreactivity
3,QVQLVESGGGLVQAGGSLRLSCAASGRILFGYAMGWYRQAPGKERELVADITSTGSTNYADSVKGRFTISRDNAKNSVYLQMNSLKPEDTAVYYCNARRESYYQRYRVDYWGQGTQVTVSS,low polyreactivity
4,QVQLVESGGGLVQAGGSLRLSCAASGRILGAYAMGWYRQAPGKERELVASISSGGRTYYADSVKGRFTISRDNAKNTVYLQMNSLKPEDTAVYYCNRDRNSGFYRRYGYWGQGTQVTVSS,high polyreactivity
5,QVQLVESGGGLVQAGGSLRLSCAASGRILGDYAMGWYRQAPGTEREFVAAIDYNGGSTNYADSVMGRFTISRDNAKNTVYFQMNSLKPEDTAVYYCAKTDGFYRGYGYWGQGTQVTVSS,low polyreactivity
6,QVQLVESGGGLVQAGGSLRLSCAASGRILGKYAMGWYRQAPGKERELVAAIRLRGGSTYYADSVKGRFTISRDNAKNTVYLQMNSLKPEDTAVYYCAARYWDRSQAYTYWGQGTQVTVSS,high polyreactivity
7,QVQLVESGGGLVQAGGSLRLSCAASGRILGNNVMGWYRQAPGKERELVDAITSSGGRTYYADSVKGRFTISRDNAKNTVYLQMNSLKPEDTAVYYCAAERRYYGKFNYWGQGTQVTVSS,high polyreactivity
8,QVQLVESGGGLVQAGGSLRLSCAASGRILGQYAMGWYRQAPGKERELVAAISFRGGRTYYADSVKGRFTISRDNAKNTVYLQMNSLKPEDTAVYYCATDGWRSPYYRNYRYFYTEYYYWGQGTQVTVSS,high polyreactivity
9,QVQLVESGGGLVQAGGSLRLSCAASGRILGQYVMGWYRQAPGKERELVASIRSGGVSTYYADSVKGRFTISRDNAKNTVYLQMNSLKPEDTAVYYCATGSPGPRRYKFDYWGQGTQVTVSS,low polyreactivity
10,QVQLVESGGGLVQAGGSLRLSCAASGRILGRYAMGWYRQAPGKERELVAAISGSGTSTYYADSVKGRFTISRDNAKNTVYLQMNSLKPEDTAVYYCAAKWITRRGGDFDYWGQGTQVTVSS,high polyreactivity
11,QVQLVESGGGLVQAGGSLRLSCAASGRILGVNAMGGYRQAPGKERELVAAINFSGGGTYYADSVKGRFTISRDNAKNTVYLQMNSLKPEDTAVYYCAAGYVTTWFRYDYWGWGQGTQVTVSS,low polyreactivity
12,QVQLVESGGGLVQAGGSLRLSCAASGRILGYNARGWYRQAPGKEREFVATISKRTGSTRYADSVKGRFTISRDNAKNTVYLQMNSLKPEDTAVYYCAAYYGRFYGKYDYWGQGTQVTVSS,high polyreactivity
13,QVQLVESGGGLVQAGGSLRLSCAASGRILHHYAMGWYIQAHGKERELVAAIRWGGGSTYYADSVKGRFTISRDNAKNTVYLQMNSLKPEDTAVYYCAAEVVAGYDYSQYYYWGQCTQVTVSS,low polyreactivity
14,QVQLVESGGGLVQAGGSLRLSCAASGRILILNAMGWYRQAPGKERELVAAITNGGSTNYADSVKGRFTISRDNAKNSVYLQMNSLKPEDTAVYYCAARLYSYDYYTVLKLFDYWGQGTQVTVSS,low polyreactivity
15,QVQLVESGGGLVQAGGSLRLSCAASGRILIPYAMGWYRQAPGKEREFVAGITGSGGRTYYADSVKGRFTISRDNAKNTVYLQMNSLKPEDTAVYYCAADYYYSPTMYYWGQGTQVTVSS,low polyreactivity
16,QVQLVESGGGLVQAGGSLRLSCAASGRILIRKAMGRSRQAPGKERELVAAINRGGGSTYYADSVKGRFTISRDNAKNTVYLQMNSLKPEDTAVYYCAADRKAGYSRVDGDYWGQGTQVTVSS,low polyreactivity
17,QVQLVESGGGLVQAGGSLRLSCAASGRILKRYAMGWYRQAPGKERELVAAINWSGGSTYYADSVKGRFTISRDNAKNTVYLQMTSLKPEDTAVYYCAADSWPFGYYYWGQGTQVTVSS,high polyreactivity
18,QVQLVESGGGLVQAGGSLRLSCAASGRILKVYAMGGYRQAPGQERELVAAISVNGGRTYYADSVKGRFTISRDNAKNTVYLQMNSLKPEDTAVYYCAIRLYKPGNVFYSVDQSDYWGQGTQVTVSS,low polyreactivity
19,QVQLVESGGGLVQAGGSLRLSCAASGRILLRNVMGLYRPAPGKERELVAVITRTGITYYADSVKGRFTISRDNAKNTVYLQMISLNPEDTAVYYCAAGLPTYEHDYWGQGTQVTVSS,low polyreactivity
20,QVQLVESGGGLVQAGGSLRLSCAASGRILLSYAMGWYRQAPGKERELVAAISRSGVSTYYADSVKGRFTISRDNAKNTVYLQMNSLKPEDTAVYYCAAVRSSPGKSWDYNYWGQGTQVTVSS,high polyreactivity
21,QVQLVESGGGLVQAGGSLRLSCAASGRILPFNAMGWYRQAPGKERELVAAIRWRGSSTYYADSVKGRFTISRDIAKNTVYLQMNSLKPEDTAVYYCAAPSSVRGKVISADYGYWGQGTQVTVSS,high polyreactivity
22,QVQLVESGGGLVQAGGSLRLSCAASGRILPFNAMGWYRQAPGKERELVATITRRGGSTFYADSVKGRFTMSRDNAKNTVYLQMNSLKPEDTAVYYCAKTYWYVGSSRTYNYWGQGTQVTVSS,high polyreactivity

row,Sequence,polyreactivity (PSR sort gate)
1,QVQLVESGGGLVQAGGSLRLSCAASGRILPSNAMGWYRPAPGKERELVAGITSGGSTDYADSVKGRFTISRDNAKNTVYLQMNSLKPEDTAVYYCNKPFPYYPDGPNGYDYWGQGTQVTVSS,low polyreactivity
2,QVQLVESGGGLVQAGGSLRLSCAASGRILQFYAMGWYRQAPGKERELVATIRVGGGSTYYADSVKGRFTISRDNAKNTVYLQMYSLKPEDTAVYYCAVRQLYSYPGDRRGYYWGQGTQVTVSS,low polyreactivity
3,QVQLVESGGGLVQAGGSLRLSCAASGRILQGYAMGWYRQAPGKERELVASIRTGGTTNYADSVKGRFTISRDNAKNTVYLQMNSLKPEDTAVYYCNLGYYSYYGRYYYWGQGTQVTVSS,high polyreactivity
4,QVQLVESGGGLVQAGGSLRLSCAASGRILQPNAMGWYRQAPGKERELVAGISRSGGGTYYADSVKWRFTISRDNAKNTVYLQMNTLKPEDTAVYYCAAYRYGYGYGYWGQGTQLTVSS,high polyreactivity
5,QVQLVESGGGLVQAGGSLRLSCAASGRILRSYAMGWYRPAPGKERELVAAIRWRGGSTYYADSVKGRFTISRDNAKNTVYLQMNSLKPEDTAVYYCAARSYYRQSAGDYWGQGTQVTVSS,high polyreactivity
6,QVQLVESGGGLVQAGGSLRLSCAASGRILRTYAMGWYRPAPGKERELVAAISRSGGSTYYADSVKGRFTISRDNAKNTVYLQMNSLKPEDTAVYYCNKAYGGRGYKYEYWGQGTQVTVSS,high polyreactivity
7,QVQLVESGGGLVQAGGSLRLSCAASGRILSGNAMGWYRQAPGKERELVAAITNAGITKYADSVKGRFTISRDNAKNTVYLQMNSLKPEDTAVYYCATDRYAYKLYDYWGQGTQVTVSS,low polyreactivity
8,QVQLVESGGGLVQAGGSLRLSCAASGRILSKNAMGWYRQAPGKERELVAAIRGSTGITYYADSVKGRFTISRDNAKNTVYLQMNSLKPEDTAVYYCAAVVQGGFYWGQGTQVTVSS,high polyreactivity
9,QVQLVESGGGLVQAGGSLRLSCAASGRILSYYAMGWYRQAPGKERELVAVIRRGASTYADSVKGRFTISRDNAKNTVYLQMNSLKPEDTAVYYCNADRVVGLSATKYGYWGQGTQVTVSS,low polyreactivity
10,QVQLVESGGGLVQAGGSLRLSCAASGRILTFNAMGGYRQAPVKERELVASISNGGSTIYADSVKGRFSISRDNAKNTVYLQMNSLKPEDTAVYYCAALNASQGTVTFYIFDYWGQGTQVTVSS,low polyreactivity
11,QVQLVESGGGLVQAGGSLRLSCAASGRILTGYAMGWYRQAPGKARELVAAISNDTDSTHYADSVKGRFTISRDNAKNTVYLQMNSLKPEDTAVYYCATDAPLQKRWRRFDYWGQGTQVTVSS,low polyreactivity
12,QVQLVESGGGLVQAGGSLRLSCAASGRILTGYAMGWYRQAPGKERELVAAISNDTDSTHYADSVKGRFTISRDNAKNTVYLQMNSLKPEDTAVYYCATDAPLQKRWRRFDYWGQGTQVTVSS,low polyreactivity
13,QVQLVESGGGLVQAGGSLRLSCAASGRILTRNALGWYRQAPGKERELVAAISTSGGRTYYADSVKGRFTISRDNAKNTVYLEMNSLKPEDTAVYYCAAYSASYGGYDYWGQGTQVTVSS,high polyreactivity
14,QVQLVESGGGLVQAGGSLRLSCAASGRILVDYAMGWYRQAPGKERELVAAITSTGGTTYYADSVKGRFTISRDNAKNTVYLQMNSLKPEDTAVYYCAAKRQDSWGGTYGYWGQGTQVTVSS,low polyreactivity
15,QVQLVESGGGLVQAGGSLRLSCAASGRILVYYAMGWYRQATGKERELVAAITASGASTYYADSVKGRFTISRDNAKKTVYLQMNSLKPEDTAVYYCKVLYPRKYWQVREYYWGQGTQVTVSS,high polyreactivity
16,QVQLVESGGGLVQAGGSLRLSCAASGRILWFYAMGWYRQAPGKERELVAAITDSGGSTYYADSVKGRFTISRDNAKNTVYLQMNSLKPEDTAVYYCAADTYYEFQYYVILEYNYWGQGTQVTVSS,low polyreactivity
17,QVQLVESGGGLVQAGGSLRLSCAASGRILYLNDMGWYRQAPGKERELGAAITRRAGSTSYADSVKGRFTISRDNAKNTFYLQMNSLKPEDTAVYYCAKATSRRGFYYWGQGTQVTVSS,high polyreactivity
18,QVQLVESGGGLVQAGGSLRLSCAASGRILYNYAMGWYRQAPGKECELVAAISSGGSTNYADSVKGRFTISRDNAKNTVYFQMNSLKPEDTAVYYCAAYRGHSWRGLYRWSDYDFWGQGTQVTVSS,low polyreactivity
19,QVQLVESGGGLVQAGGSLRLSCAASGRILYPYAMGGYRQAPGKERELVAAITFIGGSTYYADSVKGRFTISRDNAKNTVYLQMNSLKPEDTAVYYCNAKPHRPSLLRWRIGNYWGQGTQVTVSS,high polyreactivity
20,QVQLVESGGGLVQAGGSLRLSCAASGRILYRYAMGWYRQAPGKERELVAAISRSGGDTYYADSVKGRFTISRDNAKNTVYLQMNSLKPEDTAVYYCAASFEGSGYRYDYWGQGTQVTVSS,low polyreactivity
21,QVQLVESGGGLVQAGGSLRLSCAASGRILYRYAMGWYRQAPGKERELVAAITWRGGTTYYADSVKGRFTISRDNAKNTVYLQMISLKPEDTAVYYCNSDWWRTLESDYWGQGTQVTVSS,low polyreactivity
